Biological target: T1, CEACAM6 antigen (carcinoembryonic antigen related cell adhesion molecule 6) (human, UniProt P40199 35-320)
T1 construct: also called CD66c
T1 sequence: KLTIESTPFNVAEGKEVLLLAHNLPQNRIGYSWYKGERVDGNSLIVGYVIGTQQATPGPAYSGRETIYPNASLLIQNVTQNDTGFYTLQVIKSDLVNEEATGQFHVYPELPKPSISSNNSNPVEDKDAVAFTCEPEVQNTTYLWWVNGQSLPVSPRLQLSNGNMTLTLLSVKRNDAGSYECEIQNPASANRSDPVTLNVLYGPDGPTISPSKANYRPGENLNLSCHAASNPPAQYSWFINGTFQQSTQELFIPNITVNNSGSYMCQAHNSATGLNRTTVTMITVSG
Test: SPR, format not stated

B1: 2A3 camelid single domain antibody (anti-CEACAM6) (VHH)
VHH: QVKLEESGGGLVQAGGSLRLSCRTSGRTNSVYTMGWFRQAPGKEREFVAQIMWGAGTNTHYADSVKGRFTISRDSAESTVYLQMNSLKPEDTAVYYCAANRGIPIAGRQYDYWGQGTQVTVSS
notes: Llama sdAb isolated from a whole cancer cell immunized library; also called 2A3 antibody; 2A3 anti-CEACAM6 antibody
  Kd: 5 nM

From patent US20180016337A1 (HELIX BIOPHARMA, published 2018)
